Source: patent US20200392528A1, “IMPROVED PLANT EPSP SYNTHASES AND METHODS OF USE” (PIONEER HI-BRED INTERNATIONAL, INC., priority 2017, published 2020)
Substitutions are numbered along the chain they refer to. Read-outs that look alike come from different tables or passages of the source.

B1: Zm D2-28: maize EPSPS variant, SEQ ID NO: 8 (protein)
chain: MRKWEEIVLQPIKEISGTVKLPGSKSLSNRILLLAGLAEGTTVVDNLLNSEDVHYMLGALRTLGLSVEHDKAAKRAVVVGCGGRFPVEDAKGEVQLFCGNAATAMRPLTAAVTAAGGNATYVLDGVPRMRERPIGDLVVGLKQLGADVDCFLGTDCPPVRVNGIGGLPGGKVKLSGSISSQYLSALLMAAPLALGDVEIEIIDKLISLPYVEMTLRLMERFGVKAERSDSWDRFYIKGGQSYLSPKNAYVEGDASSASYFLAGAAITGGTVTVEGCGTTSLQGDVKFAEVLEMMGAKVTWTEASVTVTGPPREPFGRKHLKAIDVNMNKMPDAAMTLAVVALFADGPTAIRDVGSWRVKETERMVAIRTELTKLGASVEEGPDYCIITPPEKLNVTAIDTYGDHRMAMAFSLAACAEVPVTIRDPGCTRKTFPDYFDVLSTFVKN
modifications: Zea mays
B2: Zm D2-68: maize EPSPS variant, SEQ ID NO: 4 (protein)
chain: B1 chain with G36A, H54L, R227H, S241K, A303T, G354A, R368C, E391P
modifications: Zea mays
B3: Zm D2-67: maize EPSPS variant, SEQ ID NO: 5 (protein)
chain: B1 chain with G36A, A38S, R227H, S241K, L243E, A303T, E391P
modifications: Zea mays
B4: Zm D2-82: maize EPSPS variant, SEQ ID NO: 6 (protein)
chain: B1 chain with G36A, A38S, R227H, S241K, L243E, A303T, R368C, E391P
modifications: Zea mays
B5: Zm F3: maize EPSPS variant, SEQ ID NO: 11 (protein)
chain: MAGAEEIVLQPIKEISGTVKLPGSKSLSNRILLLAALSEGTTVVDNLLNSEDVHYMLGALRTLGLSVEADKAAKRAVVVGCGGKFPVEDAKEEVQLFCGNAATAMRPLTAAVTAAGGNATYVLDGVPRMRERPIGDLVVGLKQLGADVDCFLGTDCPPVRVNGIGGLPGGKVKLSGSISSQYLSALLMAAPLALGDVEIEIIDKLISIPYVEMTLRLMERFGVKAEHSDSWDRFYIKGGQKYKSPKNAYVEGDASSASYFLAGAAITGGTVTVEGCGTTSLQGDVKFAEVLEMMGAKVTWTETSVTVTGPPREPFGRKHLKAIDVNMNKMPDVAMTLAVVALFADGPTAIRDVASWRVKESERMVAIRTELTKLGASVEEGPDYCIITPPEKLNVTAIDTYGDHRMAMAFSLAACAEVPVTIRDPGCTRKTFPDYFDVLSTFVKN
modifications: Zea mays
B6: Zm F3-88: maize EPSPS variant, SEQ ID NO: 12 (protein)
chain: B5 chain with H54G, R216V, E226Y, K297A, V333A, R429A
modifications: Zea mays
B7: Zm D2-3P124: maize EPSPS variant, SEQ ID NO: 3; D2-124 has 18 mutations (protein)
chain: MRKWEEIVLQPIKEISGTVKLPGSKSLSNRILLLAALSEGTTVVDNLLNSEDVGYMLGALRTLGLSVEHDEAAKRAVVVGCGGRFPVEDAKGEVQLFCGNAATAMRPLTAAVTAAGGNATYVLDGVPRMRERPIGDLVVGLKQLGADVDCFLGTDCPPVRVNGIGGLPGGKVKLSGSISSQYLSALLMAAPLALGDVEIEIIDKLISLPYVEMTLRLMERFGVRAEHSDSWDRFYIKGGQKYESPKNAYVEGDASSASYFLAGAAITGGTVTVEGCGTTSLQGDVKFAEVLEMMGAKVTWTETSVTVTGPPREPFGRKHLKAIDVNMNKMPDAAMTLAVVALFADGPTAIRDVGSWRVKETERMVAIRTELTKLGASVEEGPDYCIITPPPKLNVTAIDTYGDHRMAMAFSLAACGEVPVTIRDPGCTRKTFPDYFDVLSTFVKN
modifications: Zea mays
notes: D2-124 has 18 mutations
B8: Zm D2c-A5: maize EPSPS variant with 21 mutations, SEQ ID NO: 59 (protein)
chain: B7 chain with R2S, N162R, M293L, E302P
modifications: Zea mays

Key:
[1] = tested on: maize EPSPS; experiment: kcat gly / kgly: enzyme turnover under application conditions (30 μM PEP and S3P, 1 mM glyphosate), phosphate release coupled to MESG; assay type: biochemical; details: for Zm/Os: ratio of kcat gly, maize variant to rice ortholog; for kgly: enzyme turnover at 30 μM PEP and S3P
Experimental: A more straight-forward, accurate and meaningful parameter is one in which one rate measurement is performed under presumed in vivo conditions, if known. To establish a set of conditions that mimic those under which the mutated enzyme needs to perform, the concentrations of PEP and S3P were set low (30 uM, subject to the sensitivity of assay conditions) to approach the presumed intracellular concentrations (˜15 uM, the approximate values of KM for both PEP and S3P). Glyphosate is included at 1 mM. The pH is set at 7.0 and ionic strength at 100 mM KCl, also to mimic known in vivo conditions. Ethylene glycol is present at 5% (v/v) to approximate the dielectric constant of intracellular fluid. The parameter is termed “enzyme turnover under application conditions”, which is herein shortened to “kcat gly”. The conventional formatting of the expression “kcat” is not used, to avoid this term being characterized as a standard kinetic constant.
(§1) EPSPS activity was determined by quantifying the phosphate generated from the EPSPS reaction. Release of inorganic phosphate was coupled to its reaction with 2-amino-6-mercapto-7-methylpurine ribonucleoside (MESG), catalyzed by purine nucleoside phosphorylase, according to previously described protocols. To determine the kcat gly, enzyme preparations were normalized to 0.1 mg/ml and four- to six-microliter aliquots of normalized enzyme were added to the wells of a low UV-absorbing 96-well assay plate (Greiner UV-Star). Reactions were started with the addition of 2×147 μl of reaction mixture containing 25 mM Hepes, pH 7.0, 100 mM KCl, 5% ethylene glycol, 30 μM each of PEP and S3P, 0.15 mM MESG, 1.5 U/ml purine nucleoside phosphorylase (Sigma N8264) and 1 mM glyphosate. Absorbance was monitored at 4 sec intervals for 50 sec with a Spectramax plate reader (Molecular Devices). […] Division by the enzyme concentration (0.04 to 0.1 uM, depending on activity) yields “kcat gly” in units of min^−1.
(§2) Approximately 30 substitutions were designed into each library. Assuming an average incorporation rate of six substitutions per variant, the theoretical size of such libraries is ˜7×10^5. Libraries were screened using methods described previously and the enhanced method described in Example 2. The number of colony-forming units plated and screened was in the range of 50 to 100% of the theoretical size. Up to 200 colonies per library were picked for evaluation of the expressed variant. Proteins were purified as described previously in PCT/US2016/054399, incorporated herein by reference. Protein concentration was determined by measuring optical density at 280 nm. The extinction coefficient of native maize EPSPS (0.676 OD/mg/ml) was calculated by vNTI and used to convert OD280 to mg/ml. Kinetic parameters were determined as described in Example 1.
A customized parameter for predicting performance in the treated plant that would be a more accurate representation than kcat/Km*Ki. […] However, kcat/Km*Ki may be inadequate for predicting the reaction velocity under the conditions of the application (plants sprayed with glyphosate) because it may neglect concentrations of substrate and inhibitor, factors that are not intrinsic to the enzyme, but on which the reaction rate depends. Therefore, libraries derived from C1 on in FIG. 2 were evaluated with a single rate measurement designed to take all factors in the rate equation for competitive inhibition into account. […] Glyphosate was included at 1 mM, a concentration attainable in tissues, especially meristems, receiving metabolite flow from treated leaves. The pH (7.0), ionic strength (100 mM KCl) and co-solvent concentration (5% ethylene glycol) were also intended to mimic in vivo conditions. The unit for the parameter is reaction rate (μM·min^−1) per enzyme concentration (μM), or min^−1, describing the enzyme turnover under application conditions, which we abbreviate as “kgly”. […]

[2] = tested on: maize EPSPS; experiment: substrate saturation kinetic analysis (kcat, KM PEP, KI glyphosate); assay type: biochemical; details: for KI/KM: discrimination between glyphosate and PEP; for kcat/Km*Ki: calculated with Km for PEP
Experimental: as §1, §2
Combinatorial shuffling, maize native EPSPS—The mutations discovered were used to construct a combinatorial library designed to explore combinations of the desensitizing mutations in novel sequence contexts provided by the newly identified neutral mutations. Note that the amino acid position numbering in this Example 10 refers to the relative position of native maize EPSPS without the N-terminal Met. Therefore, G101A in this Example would be G102A in reference to SEQ ID NO: 1, wherein the maize EPSPS sequence has a Met added at the N-terminal. The diversity used was the same with the addition of G101A, T102 (IALGV) and P106(WA). In all, 43 substitutions at 29 positions were selected. The library was synthesized entirely from oligonucleotides, using the known technique of synthetic shuffling and was termed NatFS (Native, fully synthetic). The vector DNA of the library was transformed into the BL21(DE3) Tuner-AroA knockout strain and the cells were plated onto M9 medium containing either 30 mM glyphosate and 30 μM of the lac operon inducer isopropyl β-D-1-thiogalactopyranoside (IPTG) or 50 mM glyphosate and no IPTG. The 184 colonies that grew on either plate were picked and subjected to a second tier of screening in which EPSPS proteins were purified and activity measured at high (200 μM) and low (50 μM) PEP and S3P, with or without 10 μM glyphosate. Selected variants were subjected to substrate saturation kinetic analysis.

[3] = Table 2, 30 μM PEP and S3P, 1 mM glyphosate, pH 7.0
[4] = Table 2, KM for PEP, read-out: KM
[5] = apparent Km, PEP present at 10 times its Km, read-out: Km S3P
[6] = apparent Km, S3P present at 10 times its Km, read-out: Km PEP

Molecule | kcat gly [1, 3] [min⁻¹] | kcat ([2]; Table 2) [s⁻¹] | kcat/KM*KI ([2]; Table 2) | Km [2, 4] [µM] | KI/KM ([2]; Table 2) | Ki ([2]; Table 2, inhibitor glyphosate) [µM] | kcat gly ([1]; Table 5, maize variants) [min⁻¹] | Zm/Os ([1]; Table 5) | kgly ([1]; 1 mM glyphosate) [min⁻¹] | Ki ([2]; Ki for glyphosate) [µM] | Km [2, 5] [µM] | Km [2, 6] [µM] | kcat/Km*Ki [2] | kcat ([2]; maize EPSPS variants) [s⁻¹] | kcat gly ([1]; D2c variants with substitutions relative to D2-124, no unit in table (kcat gly given in min^−1))
B1 | 120 | 8.03 | 21500 | 15.8 | 44.5 | 703 |  |  |  |  |  |  |  |  | 
B2 | 113 | 9.23 | 37400 | 22.1 | 67.5 | 1490 |  |  |  |  |  |  |  |  | 
B3 | 119 | 9.47 | 27100 | 20 | 47.7 | 955 | 138 | 1.35 |  |  |  |  |  |  | 
B4 | 124 | 10.4 | 30900 | 26.3 | 49.4 | 1300 |  |  |  |  |  |  |  |  | 
B5 | 39.3 | 7.87 | 7280 | 71.5 | 15.4 | 1100 | 45.2 | 1.16 |  |  |  |  |  |  | 
B6 | 85.7 | 11.6 | 29600 | 55.6 | 44.0 | 2440 | 98 | 1.57 |  |  |  |  |  |  | 
B7 | 132 | 9.88 | 22710 | 34.7 | 38.3 | 1330 |  |  | 175 ± 2.5 | 893 ± 53 | 11.1 ± 0.7 | 18.1 ± 0.7 | 31130 | 10.5 ± 0.083 | 
B8 |  |  |  |  |  |  |  |  | 186 ± 4.7 | 839 ± 40 | 12.6 ± 1.4 | 18.1 ± 0.6 | 34350 | 12.4 ± 0.1 | 156
